The text below walks through data of patent US20250000946A1 (WUXI BIOLOGICS IRELAND, published 2025).

For experiment [1], the target named is T1, Human IL-2Rβ/γ (intermediate affinity IL-2 receptor) (human, UniProt P14784 27-551; P31785 23-369).
T1 construct: whole, on cells; also called IL-2Rβ/γc; IL-2Rβ (CD122) and γ (CD132)
T1 sequence (looked up) 1: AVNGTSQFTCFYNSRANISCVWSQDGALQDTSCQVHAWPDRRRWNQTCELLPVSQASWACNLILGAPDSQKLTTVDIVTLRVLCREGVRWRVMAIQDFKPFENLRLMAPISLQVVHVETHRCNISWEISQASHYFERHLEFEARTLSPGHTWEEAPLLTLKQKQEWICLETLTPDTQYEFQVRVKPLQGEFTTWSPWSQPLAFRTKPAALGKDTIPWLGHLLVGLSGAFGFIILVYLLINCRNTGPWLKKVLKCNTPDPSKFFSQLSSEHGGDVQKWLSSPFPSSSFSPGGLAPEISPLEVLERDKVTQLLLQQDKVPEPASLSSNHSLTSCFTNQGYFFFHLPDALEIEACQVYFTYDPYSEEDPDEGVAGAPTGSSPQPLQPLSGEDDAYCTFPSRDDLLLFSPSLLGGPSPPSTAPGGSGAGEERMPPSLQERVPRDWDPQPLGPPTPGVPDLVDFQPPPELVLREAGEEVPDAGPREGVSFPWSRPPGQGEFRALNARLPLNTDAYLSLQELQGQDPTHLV
T1 sequence (looked up) 2: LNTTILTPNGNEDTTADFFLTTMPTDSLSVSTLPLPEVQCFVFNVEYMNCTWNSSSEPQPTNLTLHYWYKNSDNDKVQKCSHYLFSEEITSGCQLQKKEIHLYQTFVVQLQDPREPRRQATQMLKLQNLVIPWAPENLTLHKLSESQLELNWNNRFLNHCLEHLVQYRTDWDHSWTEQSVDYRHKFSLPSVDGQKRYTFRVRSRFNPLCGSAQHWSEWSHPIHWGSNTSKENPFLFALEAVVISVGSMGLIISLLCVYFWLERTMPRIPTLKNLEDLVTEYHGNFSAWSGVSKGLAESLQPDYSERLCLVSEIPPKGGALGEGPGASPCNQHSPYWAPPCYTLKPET
Put plainly: FACS, HH cells; EC50 fold vs T2U0.E44-1. Here is the method: (§1) Human cutaneous T cell lymphoma HH cells, malignant non-Hodgkin's lymphoma NK92 cells and cutaneous T cell lymphoma MJ20 cells were used for binding assay. They both constitutively express IL-2Rβ (CD122) and […] (CD132), and NK92 and MJ20 also expresses IL-2Rα (CD25). HH, NK92 and MJ20 cells were cultured following ATCC guidance, then transferred to a 96-plate for binding analysis. Cells were incubated with IL-2/Fc fusion proteins at the indicated concentrations for 30 min at 4° C. to avoid internalization. Binding was detected by 2nd antibody of PE-anti-human Fc at 4° C. for another 30 min. The median fluorescence intensity (MFI) on HH and NK92 cells was measured using FACS.
(§2) IL-2 variants of T2U0.E44-6 and T2U0.E44-26 were used to construct bivalent variants W3XX115-T2.Z20-1.uIgG4V322 and W3XX115-T2.Z20-2.uIgG4V322 respectively.

Experiment [2] deals with T1, Human IL-2Rβ/γ (intermediate affinity …). Put plainly: FACS, HH cells; EC50 fold vs T2U0.E44-1. The gist of the method: (§3)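 Surface binding of IL-2/Fc fusion proteins at 4° C. (30 min, no internalization) on lymphoma lines HH (CD122/CD132 only), NK92 and MJ20 (plus CD25); secondary PE-anti-human Fc; MFI by FACS.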
The source holds these as a separate data set.

Experiment [3] shares this target. Put plainly: cell-based or functional assay.
Experiment [4] shares this target. Put plainly: FACS, HH cells. In short, it runs like this:
as §3

Experiment [5] shares this target. Kind of experiment: cell-based or functional assay. The source holds these as a separate data set.
The target in experiment [6] is T2, W3XX115-hPro1.ECD.His, IL2Rα ECD (Homo sapiens (Human), UniProt P01589 22-213).
T2 construct: Entry includes the C-terminal 6xHis tag; also called CD25
T2 sequence: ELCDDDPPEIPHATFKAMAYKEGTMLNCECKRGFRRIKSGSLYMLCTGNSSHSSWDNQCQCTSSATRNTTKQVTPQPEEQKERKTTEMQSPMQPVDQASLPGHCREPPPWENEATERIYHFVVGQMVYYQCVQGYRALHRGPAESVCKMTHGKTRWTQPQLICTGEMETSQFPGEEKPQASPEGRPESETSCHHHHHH
Put plainly: SPR Biacore 8K; variant captured on anti-human Fc chip, IL-2Rα ECD-His injected. As for the experimental part: (§4) IL-2 variants binding affinity to IL-2 receptor were detected by SPR using Biacore 8K. For IL-2Rα binding assay, each variant was captured on anti-human Fc immobilized CM5 sensor chip (cytiva). W3XX115-hPro1.ECD.His at different concentrations were injected over the sensor chip at a flow rate of 30 uL/min for an association phase of 60 s, followed by 90 s dissociation. The chip was then regenerated by 10 mM Glycine-HCl pH1.5 after each binding cycle. For IL-2Rγ binding assay, IL-2 variants were mixed with W369-hPro2.ECD.His as 1:1 before assay, were detected by SPR using Biacore 8K. W3XX115-hPro1.ECD.His was captured on anti-His immobilized CM5 sensor chip (cytiva). The mixture were injected over the sensor chip as described above. The sensorgrams of blank surface and buffer channel were subtracted from the test sensorgrams. The experimental data was fitted by steady state affinity model. Molecular weight of W3XX115-hPro1.ECD.His or W369-hPro1.ECD.His was used to calculate the molar concentration of analyte.
(§5) For T3U0.E44-1 and T2U0.E44-33, no binding to IL-2Rα was detected.

For experiment [7], the target named is T1, Human IL-2Rβ/γ (intermediate affinity …). Kind of experiment: FACS, HH cells. As for the experimental part:
as §1, §2
This is another data set of the same source.

Experiment [8] deals with T3, W369-hPro2.ECD.His, IL2Rβ ECD (human, UniProt P14784 27-239).
T3 construct: Entry includes linker and C-terminal 6xHis tag; also called CD122
T3 sequence: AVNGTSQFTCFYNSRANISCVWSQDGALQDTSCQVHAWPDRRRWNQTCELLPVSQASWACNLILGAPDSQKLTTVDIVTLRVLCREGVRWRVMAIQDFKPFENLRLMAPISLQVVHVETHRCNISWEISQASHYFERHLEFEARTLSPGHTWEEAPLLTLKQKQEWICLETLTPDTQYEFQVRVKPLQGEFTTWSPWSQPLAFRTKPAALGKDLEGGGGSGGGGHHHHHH
Kind of experiment: SPR Biacore 8K; set-up for IL-2Rβ not described.

Experiment [9] deals with T4, W369-hPro1.ECD.His, IL-2Rγ ECD (human, UniProt P31785 23-254).
T4 construct: Entry includes linker and C-terminal 6xHis tag; also called IL-2Rγc; CD132
T4 sequence: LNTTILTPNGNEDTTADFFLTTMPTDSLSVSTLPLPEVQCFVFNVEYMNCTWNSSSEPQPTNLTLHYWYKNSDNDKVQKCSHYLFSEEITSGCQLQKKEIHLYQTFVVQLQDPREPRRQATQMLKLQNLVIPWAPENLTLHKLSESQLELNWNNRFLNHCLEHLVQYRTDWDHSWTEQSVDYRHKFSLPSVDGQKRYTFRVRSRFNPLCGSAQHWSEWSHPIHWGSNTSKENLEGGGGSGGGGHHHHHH
Kind of experiment: SPR Biacore 8K; variant pre-mixed 1:1 with IL-2Rβ ECD-His, injected over captured IL-2Rγ ECD-His. Here is the method: as §4, §5

Read-outs that look alike come from different tables or passages of the source.

B1: W3XX115-T3U0.E44-1.uIgG4V322 (Fc fusion)
chain: APTSSSTKKTQLQLEHLLLDLQMILNGINNYKNPKLTRMLTAKFAMPKKATELKHLQCLEEELKPLEEVLNGAQSKNFHLRPRDLISNINVIVLELKGSETTFMCEYADETATIVEFLNRWITFCQSIISTLTESKYGPPCPPCPAPEAAGGPSVFLFPPKPKDTLMISRTPEVTCVVVDVSQEDPEVQFNWYVDGVEVHNAKTKPREEQFNSTYRVVSVLTVLHQDWLNGKEYKCKVSNKGLPSSIEKTISKAKGQPREPQVYTLPPCQEEMTKNQVSLWCLVKGFYPSDIAVEWESNGQPENNYKTTPPVLDSDGSFFLYSRLTVDKSRWQEGNVFSCSVMHEALHNHYTQKSLSLSLG
heavy: EIQLQQSGPELVKPGASVKVSCKASGYSFTDYNMYWVKQSHGESLEWIGYIDPYNGGTRYNQKFKGKATLTVDKSSSTAFMHLNSLTSEDSAVYYCARNGHWDGAWFAYWGQGTLVTVSAASTKGPSVFPLAPCSRSTSESTAALGCLVKDYFPEPVTVSWNSGALTSGVHTFPAVLQSSGLYSLSSVVTVPSSSLGTKTYTCNVDHKPSNTKVDKRVESKYGPPCPPCPAPEAAGGPSVFLFPPKPKDTLMISRTPEVTCVVVDVSQEDPEVQFNWYVDGVEVHNAKTKPREEQFNSTYRVVSVLTVLHQDWLNGKEYKCKVSNKGLPSSIEKTISKAKGQPREPQVCTLPPSQEEMTKNQVSLSCAVKGFYPSDIAVEWESNGQPENNYKTTPPVLDSDGSFFLVSRLTVDKSRWQEGNVFSCSVMHEALHNHYTQKSLSLSLG
light: DIQMNQSPSSLSASLGDTITITCHASQNINVWLSWYQQKPGNIPKLLIYKASNLHTGVPSRFSGSRSGTGFTLTISSLQPEDIATYYCHQGQSYPFTFGSGTKLEIKRTVAAPSVFIFPPSDEQLKSGTASVVCLLNNFYPREAKVQWKVDNALQSGNSQESVTEQDSKDSTYSLSSTLTLSKADYEKHKVYACEVTHQGLSSPVTKSFNRGEC
notes: E44 format, IgG4 FALA; also called non-α IL-2
For the molecule B1, the Affinity reduction in [1] came to 0.9 fold; in experiment [2], 1.3 fold. Moreover, the “Potency EC50, STAT5 phosphorylation in CD8+ T (column headed Human Treg)” value in [3] was 11.7 nM. The “Potency reduction, CD8+ T (column headed Human Treg)” value in experiment [3] worked out at 1 fold. In addition, the EC50 in experiment [4] amounted to 64.1 nM; in experiment [7], 29.3 nM. Besides, in experiment [5], the “Human CD8+ T Potency EC50 (STAT5 phosphorylation)” value was 7.87 nM. The “Human CD8+ T Potency reduction” value in experiment [5] stood at 2.2 fold. Moreover, the figures for the binding result in experiment [6] and in experiment [9] were “no binding” and “binds”, respectively. The molecule also gave a Kd in experiment [8] of 2260 nM.
